{"source": "paper PMC6232179", "about": "(Scientific Reports, 2018)", "molecules": {"B1": {"name": "COX-2 H374Y: COX-2 H374Y mutant protein (protein)", "chain": "ANPCCSHPCQNRGVCMSVGFDQYKCDCTRTGFYGENCSTPEFLTRIKLFLKPTPNTVHYILTHFKGFWNVVNNIPFLRNAIMSYVLTSRSHLIDSPPTYNADYGYKSWEAFSNLSYYTRALPPVPDDCPTPLGVKGKKQLPDSNEIVEKLLLRRKFIPDPQGSNMMFAFFAQHFTHQFFKTDHKRGPAFTNGLGHGVDLNHIYGETLARQRKLRLFKDGKMKYQIIDGEMYPPTVKDTQAEMIYPPQVPEHLRFAVGQEVFGLVPGLMMYATIWLREHNRVCDVLKQEHPEWGDEQLFQTSRLILIGETIKIVIEDYVQHLSGYHFKLKFDPELLFNKQFQYQNRIAAEFNTLYHWYPLLPDTFQIHDQKYNYQQFIYNNSILLEHGITQFVESFTRQIAGRVAGGRNVPPAVQKVSQASIDQSRQMKYQSFNEYRKRFMLKPYESFEELTGEKEMSAELEALYGDIDAVELYPALLVEKPRPDAIFGETMVEVGAPFSLKGLMGNVICSPAYWKPSTFGGEVGFQIINTASIQSLICNNVKGCPFTSFSVPDPELIKTVTINASSSRSGLDDINPTVLLKERSTEL", "modifications": "left off: His6, end not stated, state not stated", "notes": "COX-2 H374Y mutant protein"}}, "key": {"IRE1-NLD": {"system": "IRE1-NLD", "test": "MST, COX-2 titrated to RED-labeled IRE1-NLD", "assay_type": "binding", "settings": "red labelled IRE1-NLD, Suppl. Fig. S9", "experimental": "MST was carried out using a Monolith NT.115 instrument (NanoTemper). To evaluate COX-2 binding to IRE1-NLD, an increasing concentration of purified COX-2 protein (0–10 µM) was incubated with RED-labeled purified IRE1-NLD protein (NanoTemper; as per manufacturer’s protocol). The reverse was also performed, with RED-labeled purified COX-2 incubated with an increasing concentration of purified IRE1-NLD. Positive (cyclophilin A) and negative controls (carbonic anhydrase) were included. […] Positive (cyclophilin A) and negative controls (carbonic anhydrase) were included. […] Experiments were done in triplicate and data evaluation was performed using the Monolith software (NanoTemper)."}, "COX-2 peroxidase": {"system": "COX-2 peroxidase", "settings": "COX-2 H374Y mutant; cited from earlier work", "source_text": "Thus, we generated a cell line overexpressing His-tagged COX-2 (HEK293 COX-2 OE) as well as a cell line overexpressing the His-tagged COX-2 H374Y mutant (Fig. 6A), which has a 300-fold reduction in peroxidase activity."}}}
{"molecule": "B1", "values": [{"measurement": "binding to IRE1-NLD (MST), wild-type and H374Y", "setting": "IRE1-NLD", "value": "bound to IRE1-NLD"}, {"measurement": "fold reduction in peroxidase activity", "setting": "COX-2 peroxidase", "value": 300, "unit": "fold"}]}
